The supplement of paper PMC9170038

Tested on: MS2 coat protein
Test: apparent KD of MS2 coat protein; designed switch direction (-1 OFF switch, 1 ON switch): -1; higher = weaker reporter binding
Method in brief: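 Apparent KD, taken as the median over clusters for each design, was obtained by curve-fitting normalised cluster fluorescence. Designed RNA switches had been transcribed on Illumina chips by stalled E. coli RNA polymerase and titrated with SNAP-549-labelled MS2 coat protein, doubling from 0.7 or 1.5 nM to 3 µM.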

[1] = Eterna round: R95, input ligand: microRNA oligo, concentration not stated
[2] = input ligand: microRNA oligo, concentration not stated

Sequence	apparent KD of MS2 coat protein (input ligand: FMN 200 uM)	apparent KD of MS2 coat protein (input ligand: none)	apparent KD of MS2 coat protein [2]	other results
GGUCUUCAAGUCAGGAUAUCGUCUAAUAGAUCUAACGAGAAGGGACAUGAGGAUCACCCAUGUCGUCUCAUCAG [Ex4 #19] (Eterna round: R97, puzzle: Brourd's mod of Exclusion 4)	34.5 nM	16.5 nM		
UACACCACAUGAGGAUCAAACAUGAGGAUCACCCAUGUAUAGCAAGCUUUUUGCUCGUCUUAUAAAUAUGUGGUGUA [Electric Eye 6 - Jieux - Sensor, turn-off variant 1] (Eterna round: R97, puzzle: Sensor, turn-off variant 1)	14.9 nM	14.9 nM		
CAUACACAUGAGGAUCACCCAUGUGAGGAUAUGCGUACGUAAUCCGUAGGAGACGUGCGCAGAAGGCGCGAGGU [Mat - Mod of JL D94] (puzzle: Exclusion 1)				apparent KD of MS2 coat protein [1]: 38.7 nM
GAGUGGUGAGGAUAUACAUGAGGAUCACCCAUGUGCUUCAGCUAGGAGACUAGCAUUGGUAGAAGGCAUUACUC [Mod of lroppy 8 - Jieux - Exclusion 3] (Eterna round: R97, puzzle: Exclusion 3)	102 nM	33.6 nM		
GGUCCUCUGGUGAGGAUAUCUACCCAGGCAGCUGGAGAGAAGGCACAUGAGGAUCACCCAUGUAGCAGAAAACC [Enremadi] (puzzle: Brourd's mod of Exclusion 4)				apparent KD of MS2 coat protein [1]: 9.56 nM
UUCAUGUGAGGAUAUGUGAUCUGCUUUCUGUUUAGAUGAUCACAGAAGGCACAUGAGGAUCACCCAUGUAGAUC [Ex4 - 3 - 30] (puzzle: Exclusion 4)				apparent KD of MS2 coat protein [1]: 60.5 nM
ACCUCACAUGAGGAUCACCCAUGUCAGGAUAUUCAAACAGGCGAAACUCCGCCUUCUCGAAGAAGGGACAUUAA [Israon] (Eterna round: R96, puzzle: Exclusion 1)	82.1 nM	17.7 nM	14.6 nM	
GUAUGUUCCUGAGGAUAUCGAGCCAUCGACCGCCGAGAAGGCAGAGACAUGAGGAUCACCCAUGUGAAGUAAUGGCGAUGAGAA [Eternabot solution 13] (Eterna round: R96, puzzle: Exclusion NG 1)	15.4 nM	17 nM	10.8 nM	
CUCGUGUGAGGAUAUCGAUUAUGGAAGUCUAGAUCCAUACGCGAGAAGGCACAUGAGGAUCACCCAUGUAAUGG [jl-ex4-4.35 ViennaUCT mod] (Eterna round: R97, puzzle: Exclusion 4)	68.3 nM	176 nM		
UUGUACCGGUGAGGAUAUUUUUGAUAGAACUUUAUGAUAUACAUGAGGAUCACCCAUGUUACUUUAAAGAAGGCAUCGGAUUAU [JL JR Sub091 mod 2] (Eterna round: R96, puzzle: Exclusion NG 2)			14.3 nM	
CGCACGUAAGGAUAUACAUGAGGAUCACCCAUGUGUAAAUACUGCAACGUGGUGAAUAGUAGAAGGUACGAUGC [Eternabot (L2) Solution 56] (Eterna round: R97, puzzle: Exclusion 3)	55.5 nM	18.3 nM		
UAUAUAUAGUAAGGAUAUGUAUUAUUUUUAUAAACAGAAGGUACUGACAUGAGGAUCACCCAUGUUUUAGUGUGGGCAUGUAGA [JMF's solution 73] (Eterna round: R96, puzzle: Exclusion NG 1)			36.9 nM	
AAGAUGCGGGUAGGAUAUGGAAAUUAAUAAAGACCAGAAGGACUGGUCACACAACAUGAGGAUCACCCAUGUGUGUGUUGUGAA [AK ExNG1-6] (Eterna round: R96, puzzle: Exclusion NG 1)			9.06 nM	
CAAAAGGGAGGAUAUACUUGAGGAUCACCCAAGUAAUCGGGUCAAAGAUACCAAGCAGGUAGAAGGCCCAAAUA [Teedleveer] (Eterna round: R97, puzzle: Exclusion 3)	91.5 nM	84.7 nM		
AACUGGACAGGAUAUGUUCUUGAGCACUUGAGGAUCACCCAAGUCAUCAAGAACUCAGGCACAGAAGGGUUUAUGA [jl-ex5.4.60 ViennaUCT mod] (Eterna round: R97, puzzle: Exclusion 5)	28.9 nM	13.4 nM		
UAUAUAUAGUAAGGAUAUGUAUAUAUUUCAUAAACAGAAGGUACUGACAUGAGGAUCACCCAUGUUUUAGUGUGGGCAUGUAGA [JMF's solution 65] (Eterna round: R96, puzzle: Exclusion NG 1)			48 nM	
CCUCCACAUGAGGAUCACCCAUGUCAGGAUAUCGUGUGUUUUUUUUCGGUCUUUCGUGCGAGAAGGGACGUCUG (puzzle: Exclusion 1)				apparent KD of MS2 coat protein [1]: 28.1 nM
AUAUAGUGAGGAUAUCCAAUAUAUGACAUGAGGAUCACCCAUGUUUCCACUCGUACCUCCGGAGAAGGCACAUUUU [Ex5 #65] (Eterna round: R97, puzzle: Exclusion 5)	27.2 nM	27.6 nM		

Sequence	apparent KD of MS2 coat protein (input ligand: FMN 200 uM)	apparent KD of MS2 coat protein (input ligand: none)	apparent KD of MS2 coat protein [2]	other results
UUAAAUCAUGUAGGAUAUGCGUGGCGAAGCUAUGCAGAAGGACAUGAGGAUCACCCAUGUGCUUCCGUCUGCGUACAGAUGGAA [JL Eng1 1.08 mod 3] (Eterna round: R96, puzzle: Exclusion NG 1)	81.4 nM	109 nM	80.6 nM	
ACGAUUGUAGGAUAUACUUGGAGAGUGUUCACAUAUUAACGACAUGAGGAUCACCCAUGUAGAAGGGCAAUCGG [Eternabot (L1) Solution 22] (Eterna round: R97, puzzle: Exclusion 2)	174 nM	421 nM		
AGCAGACGAGGAUAUAAACGAUAUAACAUGAGGAUCACCCAUGUACGAUCGAAUGAUCGUUUAGAAGGCGUCUGCU [E5/10-A2] (Eterna round: R97, puzzle: Exclusion 5)	17.3 nM	15.1 nM		
GAAAACGUAGGAUAUUAAUACUUAUACAUGAGGAUCACCCAUGUUUGGUGGGUCAAAGAAUGAGAAGGGCGAUGAA [EX5 #10] (Eterna round: R97, puzzle: Exclusion 5)	261 nM	376 nM		
UCGGCGCGAGGAUAUGCGGUUUGUGCUUUGGGCCCUGGCGUACAUGAGGAUCACCCAUGUAGAAGGCGCGCCGC [Apr-15 SS2-47] (puzzle: Exclusion 2)				apparent KD of MS2 coat protein [1]: 15.9 nM
GGCCUACAUGAGGAUCACCCAUGUAAGGAUAUCAAGUCGGGCUCCAAGGAAGCCCAUAUGAGAAGGUAUUUGGG [Eternabot (L2) Solution 32] (Eterna round: R97, puzzle: Exclusion 1)	116 nM	25.3 nM		
AAACAAGCAACGAGAUCCCACAUGAGGAUCACCCAUGUCAACUGAAGUUUUAAAUCUUCAGGCUCGUCUUAUAACAA [S_tov1_V1.1] (Eterna round: R97, puzzle: Sensor, turn-off variant 1)	33.6 nM	34.8 nM		
GUGUACGGAGGAUAUAUAUGGGCAGCAUACGCUGCAGCUUCACAUGAGGAUCACCCAUGUAGAAGGCUGUGCAC [JL-ex2-2.10 Brourd mod] (puzzle: Exclusion 2)				apparent KD of MS2 coat protein [1]: 19.9 nM
ACCUUAAAAGUGAGGAUAUCUAGGGCCAAAUGGCCGGAGAAGGCACAUGAGGAUCACCCAUGUAACGCCAUGGA [Beinat] (puzzle: Brourd's mod of Exclusion 4)				apparent KD of MS2 coat protein [1]: 13.9 nM
AAAAGGUCAGGAUAUGCGAGCGGCAGGGAGGCAGGUCGGUGGCAGAAGGGACAUGAGGAUCACCCAUGUUAAAA [Excls4-II] (puzzle: Exclusion 4)				apparent KD of MS2 coat protein [1]: 29.2 nM
ACAUGACUGCUAGGAUAUAGAUGACAUGAGGAUCACCCAUGUUGUCCCAUGUUUAUGGAAACGGACUAGAAGGAGCAGCAUAUG [Ex NG2 #12] (Eterna round: R96, puzzle: Exclusion NG 2)	25.7 nM	30.2 nM	24.8 nM	
UCAAAAUAGUCAGGAUAUGCAGAUUCAGCGUCCGCAGAAGGGACAGUGGGCUGGUCCGACACAUGAGGAUCACCCAUGUAAAAG [Teerreanor] (Eterna round: R96, puzzle: Exclusion NG 1)	260 nM	109 nM	140 nM	
AAAUACAAGCAAAGAUCCUACAUGAGGAUCACCCAUGUGCUCGUCUUAUAAAGUACUAUCACGAAAGUGAUAGUACA [Sensor 3, v1 - 15] (puzzle: Sensor v3, turn-off variant 1)				apparent KD of MS2 coat protein (Eterna round: R95, input ligand: FMN 200 uM): 286 nM; apparent KD of MS2 coat protein [1]: 48.2 nM; apparent KD of MS2 coat protein (Eterna round: R95, input ligand: none): 1110 nM
UUUUUAUAUGAAGGAUAUACUUAACAUGAGGAUCACCCAUGUGGUGUUGUGAGUGAGUGAGUUUAGUAGAAGGUCAAUUCUUAU [JMF's solution 82] (Eterna round: R96, puzzle: Exclusion NG 2)	516 nM	395 nM	651 nM	
CGGAUGUUAGGAUAUUAGUAGUAGUCAGAAAAGACUAUUACUGAGAAGGAACAUGAGGAUCACCCAUGUAUCCG [Mat - Exclusion 4 - Eli Mod - D45] (Eterna round: R97, puzzle: Exclusion 4)	33.1 nM	15.1 nM		
GUGUAGUGAGGAUAUACAUGAGGAUCACCCAUGUGAAUAAGAUAGAAUAAGAUAAAGUGUAGAAGGUAUAGUGU [Excluse me!!! 17 - Jieux - Exclusion 3] (Eterna round: R96, puzzle: Exclusion 3)	60.8 nM	58.4 nM	41.8 nM	
GAAUAGCGAGGAUAUACAUGAGGAUCACCCAUGUGAUCCUUAGGCUGUUCAAGCCAAUGUAGAAGGCGCAAAUU [jl-ex3.4.58 ViennaUCT mod] (Eterna round: R97, puzzle: Exclusion 3)	76.6 nM	129 nM		
CUUUUGUGAGGAUAUCAGUAGUUAAAAAAUAAAAUUACUACUGAGAAGGCACAUGAGGAUCACCCAUGUUCCUC [salish99_ex4_r3_016] (puzzle: Exclusion 4)				apparent KD of MS2 coat protein [1]: 40.5 nM
